According to the supplement of paper PMC9732359:
± gives the uncertainty stated by the source.

Test: protein stability index of a GFP-peptide fusion (yeast GPS) (PSI 1-4); higher = more stable; sorted into four equal gates, so the index is relative within each strain
In short: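 The protein stability index of a peptide was calculated by multiplying its read frequency in each gate by that gate's number and adding the products. The peptides were tiled 17-residue stretches of yeast proteins, fused downstream of GFP on a Cherry-expressing plasmid and carried in yeast as a pooled library. Mid-log cultures in leucine-free medium were sorted into four equal gates by GFP/Cherry ratio, and each gate's plasmids were PCR-amplified and Illumina-sequenced.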

Row | Sequence | protein stability index (doa10∆) | protein stability index (pdr5∆) | protein stability index (san1∆) | protein stability index (ubr1∆)
1 | LQQICRVRNKDIRKFLD [RPL9A] | 2.13 ± 0.074 | 2.2 ± 0.074 | 2.04 ± 0.1 | 2.31 ± 0.054
2 | TFKSVSKYGMLLLRCDD [POP3] | 1.89 ± 0.058 | 2.01 ± 0.067 | 1.96 ± 0.12 | 1.72 ± 0.068
3 | EENSSSNGNNLPLNKPR [RGR1] | 3.24 ± 0.044 | 3.29 ± 0.044 | 3.2 ± 0.041 | 3.26 ± 0.045
4 | NRLLPNLPEEERKQIHE [GRR1] | 1.26 ± 0.14 | 1.41 ± 0.079 | 1.71 ± 0.15 | 2.59 ± 0.13
5 | PSADGADKKDDSESNSE [ITC1] | 2.83 ± 0.083 | 3.11 ± 0.065 | 3.34 ± 0.068 | 2.96 ± 0.068
6 | DLCSSVLSQFERSYPSE [ROX3] | 2.58 ± 0.094 | 3.42 ± 0.17 | 2.98 ± 0.074 | 3.17 ± 0.086
7 | NVYRVTVHKTFEGNVAT [PRP8] |  | 3.16 ± 0.23 | 3.23 ± 0.22 | 3.33 ± 0.15
8 | VHTIIAGLDEDGKGAVY [PRE7] | 3.63 ± 0.16 | 3.41 ± 0.099 | 3.35 ± 0.093 | 3.32 ± 0.093
9 | KRLLYTRRFVNVTLVNG [RPS30A] | 2.03 ± 0.051 | 1.44 ± 0.04 | 1.62 ± 0.099 | 1.91 ± 0.059
10 | EEKEESNLAATKSMVKI [RPN11] | 3.43 ± 0.12 | 3.41 ± 0.11 | 3.34 ± 0.059 | 3.35 ± 0.098
11 | IQVFEKPFLKKTQEYYT [CDC53] | 2.36 ± 0.073 | 2.33 ± 0.056 | 2.57 ± 0.078 | 2.57 ± 0.053
12 | NEGLVEYIDAEEEESIL [RPB2] | 3.36 ± 0.081 | 3.46 ± 0.085 | 3.24 ± 0.078 | 3.37 ± 0.087
13 | VPPMKLAYSKIVNGQTF [YMR129W/POM152] | 1.37 ± 0.068 | 1.48 ± 0.072 | 1.09 ± 0.12 | 1.65 ± 0.053
14 | SDFISKLEYPHTDVSSS [RPN3] | 2.56 ± 0.047 | 2.88 ± 0.054 | 2.82 ± 0.047 | 2.5 ± 0.045
15 | IDFFKTDDSFEDKVFAS [BRN1] | 3.02 ± 0.13 | 2.88 ± 0.06 | 3 ± 0.093 | 2.89 ± 0.06
16 | MAKRTKKVGITGKYGVR [RPL43A] | 3.36 ± 0.11 | 3.34 ± 0.094 | 3.09 ± 0.1 | 3.55 ± 0.082
17 | KIINTHSDMASKMYNTD [PRP8] | 2.72 ± 0.049 | 2.76 ± 0.052 | 2.77 ± 0.05 | 2.28 ± 0.029
18 | VENIERVVMMKYDRKVP [RPO21] | 2.29 ± 0.17 | 2.67 ± 0.2 | 2.13 ± 0.19 | 2.36 ± 0.085
19 | DQFHRDTISAITHQLNN [RPC25] | 1.54 ± 0.049 | 2.12 ± 0.057 | 1.84 ± 0.076 | 1.67 ± 0.034
20 | PPPPPPSNFEINAEEIV [PRP8] | 2.6 ± 0.038 | 3.04 ± 0.046 | 2.72 ± 0.039 | 2.9 ± 0.038
21 | AVQNESVSSPIELNFDA [QCR2] | 2.95 ± 0.059 | 2.95 ± 0.061 | 2.86 ± 0.065 | 3.06 ± 0.042
22 | TWIQQFKSTMLQVSEKD [ARP7] | 1.89 ± 0.065 | 1.86 ± 0.066 | 1.27 ± 0.14 | 1.73 ± 0.053

Row | Sequence | protein stability index (doa10∆) | protein stability index (pdr5∆) | protein stability index (san1∆) | protein stability index (ubr1∆)
23 | GSNVLKSGKTIVITSIT [RRP43] | 1.72 ± 0.063 | 2.57 ± 0.061 | 2.41 ± 0.067 | 2.33 ± 0.066
24 | VAQLKPFFKYIDDANVT [RPC37] | 2.81 ± 0.078 | 2.9 ± 0.07 | 2.9 ± 0.062 | 2.8 ± 0.07
25 | LTSDLVYFGDENKVMLP [RRI2] | 3.21 ± 0.093 | 3.34 ± 0.089 | 3.07 ± 0.076 | 3.03 ± 0.068
26 | LIIKYQKYWESMRIQIL [GAL11] | 1.49 ± 0.064 | 1.95 ± 0.076 | 1.71 ± 0.087 | 1.65 ± 0.06
27 | QEEEGELEHLTKKSKLE [DSN1] | 3.02 ± 0.053 | 3.17 ± 0.056 | 3.14 ± 0.043 | 3.18 ± 0.043
28 | HIGHSALKGPVRDKLDE [DPB4] | 3.29 ± 0.085 | 3.18 ± 0.068 | 3.11 ± 0.084 | 3.2 ± 0.083
29 | VTVEQLRSIYHQFHDIL [NSL1] | 2.41 ± 0.11 | 1.9 ± 0.073 | 1.31 ± 0.16 | 1.81 ± 0.066
30 | MDQDNNNHNDSNRLHPP [GRR1] | 2.73 ± 0.062 | 2.79 ± 0.062 | 2.69 ± 0.064 | 2.9 ± 0.04
31 | EKIRPLRSRSFKSTESN [YMR129W/POM152] |  |  | 2.87 ± 0.28 | 
32 | QSTQTDLEKTERIVVSY [SMC2] | 2.98 ± 0.052 | 2.94 ± 0.065 | 2.56 ± 0.058 | 2.69 ± 0.044
33 | KLLDDNPTEFDWPTYVD [SRB8] | 3.11 ± 0.072 | 3.29 ± 0.061 | 3.01 ± 0.042 | 2.99 ± 0.058
34 | LAKKIAPGKVELAINLI [SMC2] |  | 2.88 ± 0.15 |  | 2.65 ± 0.1
35 | SEHVFDYFFYFLVLYDV [NUT1] | 2.12 ± 0.039 | 2.06 ± 0.033 | 2.26 ± 0.045 | 2.36 ± 0.034
36 | RALQENGIIMNGTLIGC [YMR153W/NUP53] | 1.88 ± 0.09 | 2.28 ± 0.071 | 2.93 ± 0.13 | 3.06 ± 0.066
37 | DSFENYFNQLKPYYFSN [RPN12] | 2.66 ± 0.083 | 2.95 ± 0.1 | 2.97 ± 0.058 | 3.02 ± 0.056
38 | FNQFVDYTLQDIICEDS [RPB2] | 2.72 ± 0.1 | 2.86 ± 0.083 | 2.78 ± 0.053 | 2.36 ± 0.079
39 | TIHRSFTICLNDRNPRL [CSN12] | 2.82 ± 0.065 | 2.76 ± 0.063 | 2.72 ± 0.069 | 2.65 ± 0.043
40 | FKRVSQTFEAKLHFKDT [NUT1] | 2.96 ± 0.082 | 3.32 ± 0.1 | 3.41 ± 0.053 | 3.19 ± 0.051
41 | EELLQLFLNNFVSRIPI [IRR1] | 3.12 ± 0.058 | 2.74 ± 0.055 | 2.75 ± 0.054 | 2.7 ± 0.041
42 | LSYYVEETNVDIGVLEE [SMC4] |  | 3.38 ± 0.22 | 3.62 ± 0.072 | 3.5 ± 0.1
43 | LKMMKLIVDTHVQFRLG [PRP8] | 2.53 ± 0.08 | 2.21 ± 0.075 | 2.56 ± 0.059 | 1.93 ± 0.048
44 | RISGLIYEEVRAVLKSF [HHF1] | 3.33 ± 0.14 | 3.13 ± 0.2 | 3.16 ± 0.11 | 
